Measured values published in patent US12036274B2, “Recombinant MPT protein derived from MPT63 and MPT64 and use thereof” (priority 2021, dated 2024).

T1: p47phox (Homo sapiens, UniProt P14598)
T1 sequence (P14598 1-390): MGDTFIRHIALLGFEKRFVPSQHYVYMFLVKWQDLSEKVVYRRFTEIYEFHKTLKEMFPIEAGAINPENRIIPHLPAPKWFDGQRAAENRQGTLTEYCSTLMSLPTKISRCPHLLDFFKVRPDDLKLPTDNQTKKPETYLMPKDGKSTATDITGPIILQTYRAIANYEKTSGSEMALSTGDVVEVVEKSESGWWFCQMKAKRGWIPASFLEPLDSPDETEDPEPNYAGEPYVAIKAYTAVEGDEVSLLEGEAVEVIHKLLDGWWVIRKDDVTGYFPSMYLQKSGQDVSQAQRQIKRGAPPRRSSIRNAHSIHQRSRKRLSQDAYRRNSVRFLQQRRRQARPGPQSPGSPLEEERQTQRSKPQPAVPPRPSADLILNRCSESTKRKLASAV

T2: TBK1 and HK2 (Homo sapiens, UniProt Q9UHD2)
T2 construct: endogenous in cells; host or cells: THP-1
T2 sequence (Q9UHD2 1-729): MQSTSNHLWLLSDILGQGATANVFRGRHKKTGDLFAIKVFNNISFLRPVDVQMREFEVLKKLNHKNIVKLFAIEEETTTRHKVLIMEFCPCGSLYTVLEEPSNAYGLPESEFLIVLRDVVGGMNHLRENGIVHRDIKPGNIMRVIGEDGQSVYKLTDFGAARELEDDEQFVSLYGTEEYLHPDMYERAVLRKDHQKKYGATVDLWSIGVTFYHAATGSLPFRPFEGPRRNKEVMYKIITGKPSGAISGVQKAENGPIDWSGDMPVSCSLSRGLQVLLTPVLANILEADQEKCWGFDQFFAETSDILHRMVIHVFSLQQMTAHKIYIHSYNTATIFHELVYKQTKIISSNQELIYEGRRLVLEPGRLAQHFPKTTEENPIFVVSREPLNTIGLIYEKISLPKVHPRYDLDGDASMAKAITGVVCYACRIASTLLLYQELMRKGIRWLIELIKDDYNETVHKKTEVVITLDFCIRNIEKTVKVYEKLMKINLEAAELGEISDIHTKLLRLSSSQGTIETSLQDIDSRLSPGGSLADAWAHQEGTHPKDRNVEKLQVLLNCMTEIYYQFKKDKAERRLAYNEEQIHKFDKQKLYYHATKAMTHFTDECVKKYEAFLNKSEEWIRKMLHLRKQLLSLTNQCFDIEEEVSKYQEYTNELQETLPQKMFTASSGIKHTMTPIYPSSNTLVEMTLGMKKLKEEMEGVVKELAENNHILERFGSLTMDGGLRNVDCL

B1: MPT63: secreted antigen of Mycobacterium tuberculosis, recombinant, purified with the 6×His bacterial expression system (protein)
chain: AYPITGKLGSELTMTDTVGQVVLGWKVSDLKSSTAVIPGYPVAGQVWEATATVNAIRGSVTPAVSQFNARTADGINYRVLWQAAGPDTISGATIPQGEQSTGKIYFDVTGPSPTIVAMNNGMEDLLIWEP
modifications: left off: small tags and cut ends
notes: secreted antigen of Mycobacterium tuberculosis, recombinant, purified with the 6×His bacterial expression system
B2: MPT64: secreted antigen of Mycobacterium tuberculosis, recombinant, produced in a bacterial expression system (protein)
chain: APKTYCEELKGTDTGQACQIQMSDPAYNINISLPSYYPDQKSLENYIAQTRDKFLSAATSSTPREAPYELNITSATYQSAIPPRGTQAVVLKVYQNAGGTHPTTTYKAFDWDQAYRKPITYDTLWQADTDPLPVVFPIVQGELSKQTGQQVSIAPNAGLDPVNYQNFAVTNDGVIFFFNPGELLPEAAGPTQVLVPRSAIDSMLA
modifications: left off: small tags and cut ends
notes: secreted antigen of Mycobacterium tuberculosis, recombinant, produced in a bacterial expression system

What was measured:
TBK1 and p47phox = assay: Co-immunoprecipitation of rMPT63 in THP-1 cells; type: cell-based, human; settings: 5 μg/ml
TBK1 = TBK1 (Homo sapiens, UniProt Q9UHD2); settings: read-out: Kd of interaction with TBK1; fluorescently labeled protein titrated with unlabeled TBK1, curve fitting, 25° C., pH 7.4
Protocol: (§1) The interaction of MPT63-TBK1 with p47phox and the interaction of MPT64-TBK1 with HK2 were monitored using a Fluoromax-4 spectrofluorometer (HORIBA Scientific) which was performed as previously described (Guo et al., 2005). MPT63 and MPT64, respectively, were labeled with BODIPY FL Iodoacetamide (ThermoFisher Scientific) according to the manufacturer's instructions. The labeled MPT63 or MPT64 was excited at 350 nm and detected through a cutoff filter at 512 nm. The fluorescently labeled MPT63 or MPT64 was titrated with unlabeled TBK1, p47phox or HK2 for kinetic analysis. The excitation and emission wavelengths were 498 mm and 518 nm, respectively. The obtained data were verified using the Grafit program, and all fluorescence measurements were performed at 25° C. in 30 mM Tris, pH 7.4, 150 mM NaCl and 1 mM dithiothryitol.

p47phox = molecular target: T1, p47phox; settings: read-out: Kd of interaction with p47phox; fluorescently labeled MPT63 titrated with unlabeled p47phox, 25° C., pH 7.4
Protocol: as §1

TBK1 and HK2 = molecular target: T2, TBK1 and HK2; assay: Co-immunoprecipitation of rMPT64 in THP-1 cells; type: cell-based; settings: 5 μg/ml
HK2 = HK2 (Homo sapiens, UniProt P52789)
HK2, sequence (P52789 whole entry): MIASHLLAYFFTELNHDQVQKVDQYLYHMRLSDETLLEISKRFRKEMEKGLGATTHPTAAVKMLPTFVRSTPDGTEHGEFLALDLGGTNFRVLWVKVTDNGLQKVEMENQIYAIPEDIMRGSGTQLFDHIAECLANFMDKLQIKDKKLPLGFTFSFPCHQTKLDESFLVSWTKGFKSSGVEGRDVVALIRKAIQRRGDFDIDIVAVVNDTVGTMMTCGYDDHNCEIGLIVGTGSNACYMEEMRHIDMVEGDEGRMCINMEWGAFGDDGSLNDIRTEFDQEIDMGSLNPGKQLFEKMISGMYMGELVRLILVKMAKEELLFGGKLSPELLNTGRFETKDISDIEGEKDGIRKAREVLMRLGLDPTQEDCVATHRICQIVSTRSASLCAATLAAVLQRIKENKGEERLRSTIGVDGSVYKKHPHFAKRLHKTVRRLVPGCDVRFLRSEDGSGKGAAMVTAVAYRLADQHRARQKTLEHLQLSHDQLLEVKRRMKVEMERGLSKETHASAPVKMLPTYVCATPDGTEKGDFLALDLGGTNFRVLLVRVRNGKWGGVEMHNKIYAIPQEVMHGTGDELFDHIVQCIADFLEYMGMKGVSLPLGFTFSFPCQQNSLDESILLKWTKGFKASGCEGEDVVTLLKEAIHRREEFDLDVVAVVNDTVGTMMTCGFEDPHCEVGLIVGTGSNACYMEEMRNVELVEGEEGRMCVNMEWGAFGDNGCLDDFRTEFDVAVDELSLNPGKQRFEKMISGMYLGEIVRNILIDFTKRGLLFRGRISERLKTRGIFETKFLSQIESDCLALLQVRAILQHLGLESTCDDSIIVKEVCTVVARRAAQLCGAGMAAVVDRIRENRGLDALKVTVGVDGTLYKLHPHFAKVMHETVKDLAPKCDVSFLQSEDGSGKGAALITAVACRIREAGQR
Protocol: as §1

| Molecule | endogenous interaction with TBK1 and p47phox (TBK1 and p47phox) | Kd (TBK1) [µM] | Kd (p47phox) [µM] | interaction with phosphorylated TBK1 (S172) (TBK1 and HK2) | Kd (HK2) [µM] |
| --- | --- | --- | --- | --- | --- |
| B1 | endogenously interacted | 0.178 | 0.345 |  |  |
| B2 |  | 0.193 |  | interacts | 0.134 |
